Measurements published in US8076094.

How the values were obtained:
[1] = system: GST control protein [GST: P08515]
[2] = biological target: GST-H3 1-44 (UniProt P68431)
[3] = biological target: histone H3 in nucleosomes purified from HeLa cells (UniProt P68431)
[4] = biological target: GST-H3 1-15 T11A (UniProt P68431)

Substance: Myc-PRK1, immunoprecipitated from 293 cell lysates
- phosphorylation in in vitro kinase assay (32P, SDS-PAGE, autoradiography) [1]: The GST control protein is not phosphorylated, thus demonstrating specificity
- phosphorylation in in vitro kinase assay (32P, SDS-PAGE, autoradiography) [2]: GST-H3 1-44 is phosphorylated by PRK1

Substance: purified recombinant PRK1 (ProQinase GmbH)
- phosphorylation in in vitro kinase assay, Western blot with α-phosphoH3T11 [3]: PRK1 phosphorylates nucleosomes at H3T11
- phosphorylation in in vitro kinase assay [4]: mutation of threonine 11 to alanine in H3 1-15 (H3 1-15 T11A) abolishes phosphorylation
